Values of other authors as cited in PMC6109845.

Molecular target: HIF-1α 19-mer peptide (Homo sapiens) (UniProt Q16665)

Sequence of von Hippel-Lindau E3 ubiquitin ligase (VHL) (P40337 whole entry): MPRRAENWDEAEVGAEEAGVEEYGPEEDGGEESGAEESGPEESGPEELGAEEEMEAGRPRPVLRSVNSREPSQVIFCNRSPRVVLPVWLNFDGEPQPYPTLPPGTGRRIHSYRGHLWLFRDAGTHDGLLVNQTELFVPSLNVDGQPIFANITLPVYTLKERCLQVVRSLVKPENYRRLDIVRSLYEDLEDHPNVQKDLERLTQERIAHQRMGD

- Kd: 3 nM
Substance: von Hippel-Lindau E3 ubiquitin ligase (VHL) (from UniProt P40337)
